According to article PMC6900284:

Molecular target: CPSF160;WDR33;CPSF30;Fip1 (human;human;human;human, UniProt Q10570;Q9C0J8;O95639-3;Q6UN15-4 1-1443;1-410;1-178;130-195, |||)
Assay: cryo-EM structure

CPSF160;WDR33;CPSF30;Fip1, sequence (Q10570 whole entry, chain 1 of 4): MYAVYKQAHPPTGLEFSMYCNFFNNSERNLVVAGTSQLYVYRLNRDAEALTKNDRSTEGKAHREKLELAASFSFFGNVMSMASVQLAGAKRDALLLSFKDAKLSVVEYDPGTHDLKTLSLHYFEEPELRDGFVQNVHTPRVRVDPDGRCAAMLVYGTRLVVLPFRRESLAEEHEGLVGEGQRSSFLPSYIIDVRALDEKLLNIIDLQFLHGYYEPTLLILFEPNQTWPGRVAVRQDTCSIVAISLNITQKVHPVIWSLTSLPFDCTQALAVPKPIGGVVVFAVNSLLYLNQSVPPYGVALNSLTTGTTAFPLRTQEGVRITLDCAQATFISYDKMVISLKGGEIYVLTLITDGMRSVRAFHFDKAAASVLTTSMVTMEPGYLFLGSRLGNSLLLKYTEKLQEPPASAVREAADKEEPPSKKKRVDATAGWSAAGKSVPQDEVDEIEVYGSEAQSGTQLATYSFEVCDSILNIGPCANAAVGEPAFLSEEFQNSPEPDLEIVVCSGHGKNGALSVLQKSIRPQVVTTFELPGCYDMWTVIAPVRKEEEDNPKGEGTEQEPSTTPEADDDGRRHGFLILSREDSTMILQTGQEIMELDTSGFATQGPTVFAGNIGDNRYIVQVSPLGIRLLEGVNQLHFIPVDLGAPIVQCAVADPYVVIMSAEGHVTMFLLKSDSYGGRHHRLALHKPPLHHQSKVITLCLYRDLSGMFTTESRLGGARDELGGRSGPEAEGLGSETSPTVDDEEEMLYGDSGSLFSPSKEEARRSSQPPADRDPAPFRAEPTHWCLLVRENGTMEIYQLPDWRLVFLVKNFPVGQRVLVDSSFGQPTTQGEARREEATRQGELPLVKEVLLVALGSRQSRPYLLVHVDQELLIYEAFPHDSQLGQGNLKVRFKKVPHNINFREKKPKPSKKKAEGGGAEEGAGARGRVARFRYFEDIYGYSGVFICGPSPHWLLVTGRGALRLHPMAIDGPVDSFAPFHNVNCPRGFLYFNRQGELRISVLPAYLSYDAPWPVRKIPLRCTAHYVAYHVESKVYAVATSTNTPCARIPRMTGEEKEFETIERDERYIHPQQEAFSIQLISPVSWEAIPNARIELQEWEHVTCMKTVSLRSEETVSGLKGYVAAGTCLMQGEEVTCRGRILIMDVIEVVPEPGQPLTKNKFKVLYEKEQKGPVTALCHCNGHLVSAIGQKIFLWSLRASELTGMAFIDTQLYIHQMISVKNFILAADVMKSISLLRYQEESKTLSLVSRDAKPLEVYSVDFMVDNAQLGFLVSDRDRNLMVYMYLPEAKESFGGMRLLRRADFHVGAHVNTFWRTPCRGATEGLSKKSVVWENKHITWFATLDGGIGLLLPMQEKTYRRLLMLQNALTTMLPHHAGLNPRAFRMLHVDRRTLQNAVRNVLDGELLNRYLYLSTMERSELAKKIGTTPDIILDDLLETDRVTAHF
CPSF160;WDR33;CPSF30;Fip1, sequence (Q9C0J8 1-410, chain 2 of 4): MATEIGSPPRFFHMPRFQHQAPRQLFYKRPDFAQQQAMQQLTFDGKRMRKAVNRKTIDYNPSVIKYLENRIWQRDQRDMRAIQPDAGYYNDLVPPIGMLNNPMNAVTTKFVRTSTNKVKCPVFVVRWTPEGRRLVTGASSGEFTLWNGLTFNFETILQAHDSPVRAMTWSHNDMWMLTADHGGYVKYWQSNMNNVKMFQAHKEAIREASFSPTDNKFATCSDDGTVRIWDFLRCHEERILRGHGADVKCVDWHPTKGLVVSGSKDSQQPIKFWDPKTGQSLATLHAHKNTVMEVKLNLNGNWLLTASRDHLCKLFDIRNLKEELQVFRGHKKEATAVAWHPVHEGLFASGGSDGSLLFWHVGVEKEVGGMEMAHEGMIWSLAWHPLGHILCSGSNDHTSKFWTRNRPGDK
CPSF160;WDR33;CPSF30;Fip1, sequence (O95639 1-178, chain 3 of 4): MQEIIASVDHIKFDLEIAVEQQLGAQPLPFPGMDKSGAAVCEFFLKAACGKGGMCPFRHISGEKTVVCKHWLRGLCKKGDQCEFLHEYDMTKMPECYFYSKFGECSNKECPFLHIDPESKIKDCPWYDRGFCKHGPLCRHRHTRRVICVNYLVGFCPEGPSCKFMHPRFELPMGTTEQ
CPSF160;WDR33;CPSF30;Fip1, sequence (Q6UN15 145-210, chain 4 of 4): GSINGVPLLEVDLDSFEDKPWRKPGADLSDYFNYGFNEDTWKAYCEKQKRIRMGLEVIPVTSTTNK

ACAAUAAAGG (ssRNA) [10-mer PAS RNA]
binding result: binds
